Tests used:
[1] = molecular target: hPcf11 (in CF II);hClp1 (human;human) (UniProt O94913+Q92989); test: filter binding; details: cap analog
[2] = molecular target: T1, hClp1 (human) (UniProt Q92989); test: filter binding; details: cap analog
T1 sequence: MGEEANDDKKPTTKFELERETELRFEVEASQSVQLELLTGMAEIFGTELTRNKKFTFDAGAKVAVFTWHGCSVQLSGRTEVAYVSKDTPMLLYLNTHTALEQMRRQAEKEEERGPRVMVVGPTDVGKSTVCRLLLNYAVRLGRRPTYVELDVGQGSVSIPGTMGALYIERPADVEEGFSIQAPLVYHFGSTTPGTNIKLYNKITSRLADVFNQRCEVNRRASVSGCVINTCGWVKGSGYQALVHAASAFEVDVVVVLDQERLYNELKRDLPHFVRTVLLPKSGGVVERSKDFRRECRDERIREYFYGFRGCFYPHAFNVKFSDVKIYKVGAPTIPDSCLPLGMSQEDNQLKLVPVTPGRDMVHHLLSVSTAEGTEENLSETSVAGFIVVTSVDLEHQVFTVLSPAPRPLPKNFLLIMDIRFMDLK

Chain of hPcf11 (in CF II);hClp1 (human;human) (O94913 whole entry, one chain of several): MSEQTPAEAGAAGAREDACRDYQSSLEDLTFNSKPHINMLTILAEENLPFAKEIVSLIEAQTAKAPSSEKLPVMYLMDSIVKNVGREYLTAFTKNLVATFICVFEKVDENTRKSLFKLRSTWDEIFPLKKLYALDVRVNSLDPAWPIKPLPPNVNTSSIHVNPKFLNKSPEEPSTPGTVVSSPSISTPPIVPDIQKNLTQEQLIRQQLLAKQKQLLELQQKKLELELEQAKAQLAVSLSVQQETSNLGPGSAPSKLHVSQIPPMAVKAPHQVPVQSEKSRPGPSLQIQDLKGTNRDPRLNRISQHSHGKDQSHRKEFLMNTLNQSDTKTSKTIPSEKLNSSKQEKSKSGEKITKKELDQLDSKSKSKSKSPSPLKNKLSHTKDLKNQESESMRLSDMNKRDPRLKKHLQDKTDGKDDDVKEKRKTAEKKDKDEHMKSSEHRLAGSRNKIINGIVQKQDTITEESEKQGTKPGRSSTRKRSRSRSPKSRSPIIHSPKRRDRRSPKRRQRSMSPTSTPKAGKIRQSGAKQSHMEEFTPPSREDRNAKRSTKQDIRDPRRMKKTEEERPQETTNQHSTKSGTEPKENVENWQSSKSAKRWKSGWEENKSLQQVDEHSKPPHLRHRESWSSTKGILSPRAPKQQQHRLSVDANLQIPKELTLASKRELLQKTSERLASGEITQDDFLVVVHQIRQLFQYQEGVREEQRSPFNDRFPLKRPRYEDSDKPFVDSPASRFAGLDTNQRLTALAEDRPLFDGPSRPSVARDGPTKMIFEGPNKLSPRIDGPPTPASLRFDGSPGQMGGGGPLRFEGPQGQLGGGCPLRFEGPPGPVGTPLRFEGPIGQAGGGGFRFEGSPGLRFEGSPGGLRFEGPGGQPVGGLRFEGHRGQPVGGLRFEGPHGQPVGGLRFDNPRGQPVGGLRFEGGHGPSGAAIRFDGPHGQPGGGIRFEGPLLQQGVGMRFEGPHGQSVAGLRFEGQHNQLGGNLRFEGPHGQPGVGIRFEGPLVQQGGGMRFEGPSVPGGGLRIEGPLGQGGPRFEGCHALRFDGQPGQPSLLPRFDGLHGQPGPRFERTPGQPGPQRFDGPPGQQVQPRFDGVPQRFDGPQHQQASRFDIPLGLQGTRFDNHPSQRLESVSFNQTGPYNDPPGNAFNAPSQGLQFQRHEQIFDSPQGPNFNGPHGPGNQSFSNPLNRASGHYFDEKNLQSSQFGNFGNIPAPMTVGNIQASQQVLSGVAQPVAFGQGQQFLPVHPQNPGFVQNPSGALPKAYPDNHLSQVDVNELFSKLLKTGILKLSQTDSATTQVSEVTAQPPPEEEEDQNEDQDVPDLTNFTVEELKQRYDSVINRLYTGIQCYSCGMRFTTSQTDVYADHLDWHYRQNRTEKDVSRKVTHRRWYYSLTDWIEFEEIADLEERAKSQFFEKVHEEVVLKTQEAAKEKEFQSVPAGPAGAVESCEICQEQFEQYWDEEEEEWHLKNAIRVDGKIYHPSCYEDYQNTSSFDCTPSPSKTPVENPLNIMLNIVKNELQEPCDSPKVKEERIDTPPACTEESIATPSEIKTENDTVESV

Substance | K half [1] | K half [2]
L3 RNA | 0.9 nM | –
SV40 late RNA | 0.4 nM | 140 nM

Source: paper doi:10.1101/366336
